Literature values, collected in PMC3413252.
pKd: −log10 of the molar value.

Legend:
surface IL6 receptor = surface IL6 receptor (UniProt P08887)
soluble IL6 receptor = soluble IL6 receptor (UniProt P08887)

Chain of IL6 (P05231 30-212): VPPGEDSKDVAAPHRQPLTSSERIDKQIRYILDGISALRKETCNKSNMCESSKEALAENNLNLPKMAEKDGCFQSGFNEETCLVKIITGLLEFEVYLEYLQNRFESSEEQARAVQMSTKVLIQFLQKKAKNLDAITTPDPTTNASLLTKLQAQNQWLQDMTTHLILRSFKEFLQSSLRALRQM

pKd (surface IL6 receptor): 10.00
pKd (soluble IL6 receptor): 7.52
Substance: IL6 (from UniProt P05231)
